As usually defined, the Kd is the constant that tells how readily two partners part at equilibrium.

4 molecules from PMC5414365, “Activin A more prominently regulates muscle mass in primates than does GDF8” (Nature Communications, 2017) can be followed below.

First the molecules themselves.
B1: activin B (ligand, human, UniProt P09529 293-407, looked up)
chain: GLECDGRTNLCCRQQFFIDFRLIGWNDWIIAPTGYYGNYCEGSCPAYLAGVPGSASSFHTAVVNQYRMRGLNPGTVNSCCIPTKLSTMSMLYFDDEYNIVKRDVPNMIVEECGCA
notes: human activin B: inhibin beta B chain, mature growth factor domain; source: bought: R&D Systems
B2: ActRIIB.hFc (soluble form of activin receptor type IIB fused to human IgG Fc fragment) (Fc fusion, UniProt Q13705 19-137, looked up)
chain: SGRGEAETRECIYYNANWELERTNQSGLERCEGEQDKRLHCYASWRNSSGTIELVKKGCWLDDFNCYDRQECVATEENPQVYFCCCEGNFCNERFTHLPEAGGPEVTYEPPPTAPTLLT
notes: activin receptor type IIB (ACVR2B; ActRIIB), soluble form; also called hActRIIB.hFc; ACVR2B; source: made at Regeneron
B3: activin A (ligand, human, UniProt P08476 311-426, looked up)
chain: GLECDGKVNICCKKQFFVSFKDIGWNDWIIAPSGYHANYCEGECPSHIAGTSGSSLSFHSTVINHYRMRGHSPFANLKSCCVPTKLRPMSMLYYDDGQNIIKKDIQNMIVEECGCS
notes: human activin A: inhibin beta A chain, mature growth factor domain; also called Act A; source: bought: R&D Systems
B4: GDF11 (ligand, human, UniProt O95390 299-407, looked up)
chain: NLGLDCDEHSSESRCCRYPLTVDFEAFGWDWIIAPKRYKANYCSGQCEYMFMQKYPHTHLVQQANPRGSAGPCCTPTKMSPINMLYFNDKQQIIYGKIPGMVVDRCGCS
notes: human GDF11, mature growth factor domain; source: bought: R&D Systems

Assay [1] concerns the target B2. As to the kind of experiment: SPR; ligands at 40 to 0.78 nM injected over captured ActRIIB.hFc surface; Biacore T200, carboxymethyl dextran-coated CM4 sensor chip, 25 °C. The conditions noted are these: both partners purified. For orientation: Surface plasmon resonance follows binding to a sensor surface in real time, without labels.
Assay [2] addresses T1, activin AC (human, UniProt P08476 311-426; P55103 237-352).
T1 construct: human inhibin beta A chain, mature growth factor domain; human inhibin beta C chain, mature growth factor domain; source: bought: R&D Systems
T1 sequence (looked up) 1: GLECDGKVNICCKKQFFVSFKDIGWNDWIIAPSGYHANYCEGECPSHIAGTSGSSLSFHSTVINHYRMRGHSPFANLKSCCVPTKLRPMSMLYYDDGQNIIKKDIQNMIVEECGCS
T1 sequence (looked up) 2: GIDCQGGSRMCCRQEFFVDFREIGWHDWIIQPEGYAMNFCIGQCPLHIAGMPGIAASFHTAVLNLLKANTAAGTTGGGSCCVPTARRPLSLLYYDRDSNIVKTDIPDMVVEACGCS
The assay is described as above. The conditions noted are these: both partners purified.

Assay [3] addresses T2, activin AB (human, UniProt P08476 311-426; P09529 293-407).
T2 construct: human inhibin beta A chain, mature growth factor domain; human inhibin beta B chain, mature growth factor domain; source: bought: R&D Systems
T2 sequence (looked up) 1: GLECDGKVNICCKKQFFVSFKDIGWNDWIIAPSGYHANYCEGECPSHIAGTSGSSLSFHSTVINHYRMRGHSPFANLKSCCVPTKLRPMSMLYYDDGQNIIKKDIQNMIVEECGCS
T2 sequence (looked up) 2: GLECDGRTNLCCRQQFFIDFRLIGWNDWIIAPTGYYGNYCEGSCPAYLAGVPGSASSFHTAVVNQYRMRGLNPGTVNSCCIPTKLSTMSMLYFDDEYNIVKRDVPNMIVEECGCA
The assay is described as above. The conditions noted are these: both partners purified.

The assay “activin A” addresses B3. As to the kind of experiment: cell-based or functional assay.
For the assay “activin B”, the target named is B1. As to the kind of experiment: cell-based or functional assay.
In assay [4] the target is T1, activin AC. As to the kind of experiment: cell-based or functional assay.
The target in assay [5] is T2, activin AB. As to the kind of experiment: cell-based or functional assay.
For assay [6], the target named is T3, Growth and differentiation factor 8 (GDF8) (human, UniProt O14793 267-375).
T3 sequence (looked up): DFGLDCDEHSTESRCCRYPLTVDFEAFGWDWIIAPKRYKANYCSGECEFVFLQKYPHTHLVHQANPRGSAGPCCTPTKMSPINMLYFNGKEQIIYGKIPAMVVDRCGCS
As to the kind of experiment: cell-based or functional assay.

In the assay “GDF11” the target is B4. As to the kind of experiment: cell-based or functional assay.

Molecule B1 gave a Kd in assay [1] of 0.0064 nM.
Take B2: the Kd with activin AC [2] stood at 5.9 nM; in the assay with activin AB [3] it was 0.0044 nM. The “IC50 of ActRIIB.hFc against activin A-stimulated Smad2/3 activity (CAGAx12-luc reporter, A204 cells; fixed ligand concentration)” value with activin A was found to be 0.63 nM. For the same molecule, the “IC50 of ActRIIB.hFc against activin B-stimulated Smad2/3 activity (CAGAx12-luc reporter, A204 cells; fixed ligand concentration)” value in the assay with activin B was found to be 0.55 nM. Moreover, the “IC50 of ActRIIB.hFc against activin AC-stimulated Smad2/3 activity (CAGAx12-luc reporter, A204 cells; fixed ligand concentration)” value in the assay with activin AC [4] came to 0.085 nM. In the assay with activin AB [5], the “IC50 of ActRIIB.hFc against activin AB-stimulated Smad2/3 activity (CAGAx12-luc reporter, A204 cells; fixed ligand concentration)” value came to 0.39 nM. For the same molecule, in assay [6], the “IC50 of ActRIIB.hFc against GDF8-stimulated Smad2/3 activity (CAGAx12-luc reporter, A204 cells; fixed ligand concentration)” value is 0.3 nM. Besides, the “IC50 of ActRIIB.hFc against GDF11-stimulated Smad2/3 activity (CAGAx12-luc reporter, A204 cells; fixed ligand concentration)” value with GDF11 was 0.21 nM.
In [1], B3 showed a Kd of under 0.0035 nM.
Same read-out and setting: to B4 belongs 0.014 nM.
